The target in assay [1] is T1, mouse TIGIT-Fc (rmTIGIT-Fc, R&D Systems) (mouse, UniProt P86176 29-148, limits assumed).
T1 construct: Bought protein; also called mouse TIGIT (rmTIGIT-Fc); not shown: Fc part of the bought fusion protein
T1 sequence (looked up): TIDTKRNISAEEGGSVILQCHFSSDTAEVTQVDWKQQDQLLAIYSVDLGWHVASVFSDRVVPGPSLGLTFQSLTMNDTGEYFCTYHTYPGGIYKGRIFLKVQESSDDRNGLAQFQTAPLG
The experiment in a line: SPR (BIAcore T200), antibody immobilised on CM5 chip, TIGIT-Fc flowed. From the text: (§1) In order to measure binding abilities of the three types of anti-TIGIT antibodies produced in Example 2 to human TIGIT (rhTIGIT-Fc) and mouse TIGIT (rmTIGIT-Fc), surface plasmon resonance (SPR) using a BIAcore T200 (GE Healthcare) was used. The SPR method is based on the principle that the refractive index of light passing through a sensor chip changes according to the state of a substance coated on the sensor chip. When an antigen or antibody was made to flow into the chip coated with the antigen or antibody, the refractive index is changed due to binding therebetween and the affinity (KD) value is calculated from the measured value.
(§2) An anti-TIGIT antibody was immobilized on a Series S CM5 sensor chip (GE Healthcare) to a level of 500 RU using a 10 mM acetate solution (pH 4.0) and an amine coupling kit (GE Healthcare). […] The association of the TIGIT-Fc proteins was measured at a rate of 30 μL/min for 600 seconds, the dissociation was measured for 2,000 seconds, and the regeneration was carried out in a 10 mM glycine solution (pH 1.5) at a rate of 100 μL/min for 25 seconds.

For assay [2], the target named is T2, human TIGIT-Fc (rhTIGIT-Fc, R&D Systems) (human, UniProt Q495A1 22-141).
T2 construct: Bought protein; also called human TIGIT (rhTIGIT-Fc); not shown: Fc part of the bought fusion protein
T2 sequence: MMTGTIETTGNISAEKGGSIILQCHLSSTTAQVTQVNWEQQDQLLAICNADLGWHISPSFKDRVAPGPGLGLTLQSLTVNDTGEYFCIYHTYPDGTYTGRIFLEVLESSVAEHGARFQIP
The assay is described as above.
Source text: as §1, §2

The target in assay [3] is T3, TIGIT expressed on cells (TIGIT-expressing effector cell line of the Promega kit); TIGIT-overexpressing NK92 … (UniProt Q495A1 22-244, limits assumed).
T3 sequence (looked up): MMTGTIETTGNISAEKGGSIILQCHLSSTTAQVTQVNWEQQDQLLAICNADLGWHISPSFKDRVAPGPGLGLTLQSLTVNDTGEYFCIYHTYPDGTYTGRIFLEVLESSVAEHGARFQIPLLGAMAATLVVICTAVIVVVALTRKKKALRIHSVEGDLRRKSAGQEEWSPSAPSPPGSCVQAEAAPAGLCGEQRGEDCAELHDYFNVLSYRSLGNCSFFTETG
As to the kind of experiment: cell-based or functional assay.

In assay [4] the target is T4, human TIGIT expressed on CHO-S cells (CHO-hTIGIT) (human, UniProt Q495A1 22-244).
T4 construct: also called CHO-TIGIT cell line; TIGIT on the cell surface
T4 sequence: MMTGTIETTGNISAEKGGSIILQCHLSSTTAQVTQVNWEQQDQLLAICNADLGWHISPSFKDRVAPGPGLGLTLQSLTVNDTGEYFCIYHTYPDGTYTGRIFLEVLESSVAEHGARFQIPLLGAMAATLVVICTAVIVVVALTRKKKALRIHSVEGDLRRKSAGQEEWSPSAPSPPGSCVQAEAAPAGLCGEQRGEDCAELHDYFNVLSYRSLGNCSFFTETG
The experiment in a line: flow cytometry on CHO-TIGIT cells. How it is done:
In order to identify the binding ability of the three types of anti-TIGIT antibodies produced in Example 2 to TIGIT expressed on the cell surface, TIGIT-overexpressing CHO cell line (hereinafter referred to as CHO-TIGIT cell line) was treated with anti-TIGIT antibodies and then the anti-TIGIT antibodies bound to TIGIT on the cell surface were detected using a fluorescence flow cytometer.
Specifically, the CHO-TIGIT cell line was cultured in a 5% CO2 incubator at 37° C. for 48 to 72 hours using a chemical composition medium (CD FortiCHO Chemically Defined Medium+8 mM L-Glutamine+20 μg/mL Blasticidin+1% Anti-clumping agent). The cultured CHO-TIGIT cell line was harvested by centrifugation, diluted in FACS solution (PBS+5% FBS), and dispensed at a density of 1×10⁵ cells/well in a 96-well round bottom plate (Corning). Then, in order to completely remove the chemical composition medium remaining on the cell surface, the FACS solution was added, centrifuged at 2,000 rpm for 3 minutes and washed three times to remove the supernatant. The washed CHO-TIGIT cell line was re-suspended by addition of 100 μL of FACS solution. The anti-TIGIT antibody of each concentration, which was diluted to 2 times the final concentration using the FACS solution, was added at 100 μL to a 96-well round bottom plate in which the CHO-TIGIT cell line was dispensed, and incubated at 4° C. for 1 hour. Then, in order to remove the anti-TIGIT antibody remaining in the supernatant, without binding to the TIGIT on the cell surface, the FACS solution was added to each well, centrifuged at 2,000 rpm for 3 minutes, and washed three times to remove the supernatant. Then, in order to detect anti-TIGIT antibody bound to TIGIT on the cell surface, a goat anti-human IgG (H+L) cross-adsorbed secondary antibody (Invitrogen) was diluted to 10 μg/mL using a FACS solution, and 100 μL of the diluted antibody was incubated at 4° C. for 1 hour. After washing three times, each sample was transferred to a 12×75 mm tube (BD Biosciences) and analyzed using a fluorescence flow cytometer.

B1: F04-10-IgG1 (antibody, V domains shown)
VH: EVQLLESGGGLVQPGGSLRLSCAASGFTFSSYYMSWVRQAPGKGLEWVSSIGSGSPSSTYYADSVKGRFTISRDNSKNTLYLQMNSLRAEDTAVYYCARSSYSGGNGYYYYAYAFDYWGQGTLVTVSS
VL: EIVLTQSPGTLSLSPGERATLSCRASQSVSSSYLAWYQQKPGQAPRLLIYGASSRATGIPDRFSGSGSGTDFTLTISRLEPEDFAVYYCQQGYHRYATFGQGTKVEIK
notes: also called antibody based on the F04-10 clones
Regarding B1, in assay [1], the dissociation constant (Kd) (as a rule, a measure of binding affinity in units of concentration) was 0.245 nM; the off-rate constant (koff) – broadly, a measure of how fast the partners let go of each other – came to 2.93e-05 s⁻¹; the kon – broadly, the rate constant with which the complex forms – came to 120000 M⁻¹ s⁻¹. In assay [2], this molecule gave a Kd of 0.533 nM, a dissociation rate constant (koff) of 3.76e-05 s⁻¹ and a kon of 70500 M⁻¹ s⁻¹. For the same molecule, the “binding inhibition (EC50), TIGIT/CD155 blockade assay, luminescence fold response” value (“binding inhibition … luminescence fold response” for short) in assay [3] turned out to be 23.9 nM. The EC50 – broadly, the concentration giving half of the maximal effect – in assay [4] was 0.0164 µg/mL.

B2: S64-39-IgG1 (antibody, V domains shown)
VH: EVQLLESGGGLVQPGGSLRLSCAASGFTFSNYAMSWVRQAPGKGLEWVSGISPSGSSIYYADSVQGRFTISRDNSKNTLYLQMNSLRAEDTAVYYCAKAIRTCSLSHCYYYYGMDVWGQGTLVTVSS
VL: QSVLTQPPSASGTPGQRVTISCSSSSSNIGSNAVNWYQQLPGTAPKLLIYYDNQRPSGVPDRFSGSKSGTSASLAISGLRSEDEADYYCATWDYSLSGYVFGGGTKLTVL
notes: also called 564-39-IgG1 [sic]; antibody based on the S64-39 clones
In assay [1], B2 registered a Kd of 3.2 nM, a koff of 0.000201 s⁻¹ and an on-rate constant (kon) of 62800 M⁻¹ s⁻¹. Also, in assay [2], the Kd came out at 1.31 nM, the koff was 4.41e-05 s⁻¹ and the kon came out at 33700 M⁻¹ s⁻¹. For the same molecule, the “binding inhibition … luminescence fold response” value in assay [3] was 581 nM. This molecule gave an EC50 in assay [4] of 0.069 µg/mL.

B3: S64-39-IgG4 (antibody, V domains shown)
VH: EVQLLESGGGLVQPGGSLRLSCAASGFTFSNYAMSWVRQAPGKGLEWVSGISPSGSSIYYADSVQGRFTISRDNSKNTLYLQMNSLRAEDTAVYYCAKAIRTCSLSHCYYYYGMDVWGQGTLVTVSS
VL: QSVLTQPPSASGTPGQRVTISCSSSSSNIGSNAVNWYQQLPGTAPKLLIYYDNQRPSGVPDRFSGSKSGTSASLAISGLRSEDEADYYCATWDYSLSGYVFGGGTKLTVL
notes: also called 564-39-IgG4 [sic]
Consider B3, for which, in assay [1], binding was characterised by a dissociation constant (Kd) of 3.12 nM, the koff is 0.000194 s⁻¹ and the on-rate (kon) amounted to 62200 M⁻¹ s⁻¹. In assay [2], the dissociation constant (Kd) was found to be 1.15 nM, the off-rate (koff) worked out at 3.23e-05 s⁻¹ and the on-rate (kon) was 28200 M⁻¹ s⁻¹. For the same molecule, the “binding inhibition … luminescence fold response” value in assay [3] was 1080 nM. In addition, a half-maximal response in assay [4] (EC50) required 0.0808 µg/mL.

B4: 10A7 antibody (antibody, V domains shown)
VH: EVQLVESGGGLTQPGKSLKLSCEASGFTFSSFTMHWVRQSPGKGLEWVAFIRSGSGIVFYADAVRGRFTISRDNAKNLLFLQMNDLKSEDTAMYYCARRPLGHNTFDSWGQGTLVTVSS
VL: DIVMTQSPSSLAVSPGEKVTMTCKSSQSLYYSGVKENLLAWYQQKPGQSPKLLIYYASIRFTGVPDRFTGSGSGTDYTLTITSVQAEDMGQYFCQQGINNPLTFGDGTKLEIKR
On to B4, for which, in assay [1], binding was characterised by a dissociation constant (Kd) of 0.182 nM, the off-rate constant (koff) is 8.91e-05 s⁻¹ and the on-rate (kon) stood at 490000 M⁻¹ s⁻¹. Further, in assay [2], binding was put at a Kd of 1.19 nM, the dissociation rate constant (koff) came out at 0.000193 s⁻¹ and the association rate constant (kon) is 162000 M⁻¹ s⁻¹. The molecule further returned an EC50 in assay [4] of 0.0165 µg/mL.

The values are drawn from patent US20210087268A1 (YUHAN, published 2021).
